Assay [1] addresses platelet glycoprotein Ib alpha (UniProt P07359). Kind of assay: VWF:GPIb binding assay.
For assay [2], the target named is equine collagen (Horm), a mixture of 95 % collagen type I and 5 % type III (equine). In words: VWF collagen binding assay.

The values that follow come from publication PMC5035592.

Consider “recombinant wild type von Willebrand factor (from UniProt P04275-1 764-2813) (natural protein)”, for which, in assay [1], the VWF:GPIbα binding (in relation to rwtVWF) worked out at 1 and the ratio of VWF:GPIbα binding to VWF:Ag in medium (in relation to rwtVWF) came out at 1. Besides, the ratio of VWF:CB to VWF:Ag in medium (in relation to rwtVWF) in assay [2] was 1.

Take “plasma von Willebrand factor of a normal person (from UniProt P04275-1 764-2813) (natural protein)”: the ratio of VWF:GPIbα binding to VWF:Ag in assay [1] is 1.06.
